From the supplement of paper PMC12042874
± gives the uncertainty stated by the source.

Test: amyloid nucleation score (Sup35N fusion, yeast selection) (log enrichment); library NNK3; higher = more nucleation; inactive = no reads after selection
Method in brief: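 The nucleation score equals the log enrichment of output over input reads from DiMSum, centred on the mode score of non-aggregating sequences. It was computed only for sequences with 100 or more input reads. The reads came from Illumina sequencing of plasmid inserts from psi-negative yeast expressing Sup35N fused to peptides of 20 random codons, induced with 100 μM copper sulfate for 24 hours and grown 7 days at 30°C without adenine and uracil.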

Row | Substance | amyloid nucleation score
1 | INLVNTLFTIILMRSYRRTR | 0.022 ± 0.31
2 | INTGMASGSSGTYVSAGIEA | inactive
3 | INVPLALLSYGV | inactive
4 | INVSLGHAGEGWVWLALHLR | inactive
5 | INYYFWTSGK | 0.731 ± 0.3
6 | IPERMRWVWEVTRAYNNYAW | inactive
7 | IPFGLANSRFNVFASVMSDC | inactive
8 | IPFRLFQNDSEKMSWSCDVT | inactive
9 | IPIVRTLNLLASTLTPLCR | inactive
10 | IPRVAWQSYILTSQ | inactive
11 | IPSNHSINRCYLDIWAQFLG | inactive
12 | IQPCFIGIGVGYSRFVGRFF | 0.982 ± 0.22
13 | IQYRGYGYMNSIWYGVERFF | 0.626 ± 0.28
14 | IRASFEPWVLVRVFYSLCYG | inactive
15 | IRCMSLYLHNGGVYRS | 1.72 ± 0.069
16 | IRERGLYEMNPYWCRGRKSM | inactive
17 | IRGASYPSATNRHAAMLVWM | inactive
18 | IRHRTIWSYGSFY | inactive
19 | IRLKQQDFEGSGKLFNGGHL | inactive
20 | IRLTVWDVNRDCR | inactive
21 | IRLYFQYFLLSG | 2.35 ± 0.063
22 | IRRCPGMKVCWLYLKC | inactive
23 | IRSCIIRSFTYMLGLH | inactive

Row | Substance | amyloid nucleation score
24 | IRSDTVSTARPGNLTNC | inactive
25 | IRSMGRPTRKLCEPGFSALE | inactive
26 | IRVSN | inactive
27 | IRYCGHIRTGCFRLISDLF | inactive
28 | IRYYFRHLG | -0.203 ± 0.36
29 | ISAGNTRSTYRLGSWDTSRE | inactive
30 | ISCGYSYGTRRFS | inactive
31 | ISCRMYLCCQVLTSSCTWSH | 1.34 ± 0.11
32 | ISDLTHFRYRDVPNLLVRTK | inactive
33 | ISEVLLCAFVVYIMRKR | 0.953 ± 0.11
34 | ISGEQRYSKCRT | inactive
35 | ISGIHITSELRRGTPERCSH | inactive
36 | ISGTFACQNSTFFSGYREAI | inactive
37 | ISINLIVRCRRLHTPHLPVK | inactive
38 | ISLFGIMWIRLLHLRHESKA | inactive
39 | ISLGCLYLFCYVTGCICSVG | 1.49 ± 0.094
40 | ISMDRYHNTRHSVNRILLTC | inactive
41 | ISPCVPKSAWSIFRIAI | inactive
42 | ISRDGVRCEVWMWPWPREPA | inactive
43 | ISSYFNMCDLCVDVRHTYRR | inactive
44 | ISTVFLVISSAGTCPSHDKE | 1.32 ± 0.095
45 | ISVRFLCNYCRRVYIRRCAV | inactive
46 | ISWTYVRYYGHKKCCLFYHF | inactive

Row | Substance | amyloid nucleation score
47 | ISWWAMCACSARKVRF | inactive
48 | ITDYMIQF | -0.66 ± 0.7
49 | ITGGTPCGITTVWQKGAMG | inactive
50 | ITGMVPWSSLESSRPGSLKR | inactive
51 | ITMCIIHHRHLMATSFM | 0.752 ± 0.18
52 | ITMCRDFLLAPWPCLLQPSH | inactive
53 | ITNIFFFHSTLLRSCRASGN | 2.47 ± 0.063
54 | ITNVRSVRFLYSSTYYHIVL | 1.83 ± 0.11
55 | ITSEIMAIWFDICKAWDLCV | inactive
56 | ITTFVVMCDLVVLVC | inactive
57 | ITVELTCGSGYYGTMTENQV | inactive
58 | IVAGVMADNDIRQDCAWKFK | 1.34 ± 0.12
59 | IVDHNIMI | 0.718 ± 0.3
60 | IVIYLSHDKNLIQVRSSCEG | 2.59 ± 0.056
61 | IVLNKSILYADTCPLFPTMR | 0.655 ± 0.11
62 | IVRDFLAGPIKHSTFEVIDF | inactive
63 | IVRFNSLHYFWETDKTI | inactive
64 | IVRWGSQSGVYRMPIEAWKW | inactive
65 | IVSTWG | inactive
66 | IVSYSGRNRDAHLKSS | inactive
67 | IVTHSMSSAHINRMNSRQ | inactive
68 | IVVCAQTLHSLGPRPIEPTQ | inactive
69 | IVVNR | inactive

Row | Substance | amyloid nucleation score
70 | IVVNT | inactive
71 | IVWTVFNALQPLGNALRVSV | inactive
72 | IVYILRFRTSMLC | inactive
73 | IVYWCLVRNLEKLCCSYFTG | inactive
74 | IWGPTADKSRSVIGSVIKQG | inactive
75 | IWISYRMVSFEASKQSVVL | inactive
76 | IWKRLYPFTVRQVSCTIMCD | inactive
77 | IWNRLESFHCHILMVTFHVN | inactive
78 | IWPWYCKHNIFVKYHRLVER | inactive
79 | IWRLCNVPICPSLRGAGHYS | inactive
80 | IWSIQLSFKIASSCNFATG | inactive
81 | IWVSYWAGFVRSFSRVCNLV | inactive
82 | IWWILIDP | inactive
83 | IYGGCIFYRMSQCARMDTGE | inactive
84 | IYIFGFQTVCNSLIGGLSIA | inactive
85 | IYLYYGRTYSTFLWEV | 0.762 ± 0.12
86 | IYRQDCGFSPKNRKMVSGAA | inactive
87 | IYRTPSADDLSRDAYIGFYR | inactive
88 | IYSSCPFNLTSRMVGF | inactive
89 | IYTFSCDIYCNMSFCLWFDN | 2 ± 0.088
90 | IYWDTRLGFCAYAKC | inactive
91 | KANFNVSVGKSVHATCLLTL | inactive
92 | KAPVVWYDMEARQKCVRGGG | inactive

Row | Substance | amyloid nucleation score
93 | KATWSCLHLATHSASPCQSA | inactive
94 | KAVVLGEWTRSFCSLDFNI | inactive
95 | KAWETWAITTRSWKMFIRCL | 0.046 ± 0.96
96 | KCFISYR | inactive
97 | KCIGDLTSRMDLR | inactive
98 | KCLKCKTGLCTMQGEYNRSY | -0.475 ± 0.88
99 | KDADMDLLSRYATRCGVSRL | inactive
100 | KDCMVYWLRI | inactive
101 | KDNPLSCLVKVNVWTKLQEG | 1.16 ± 0.12
102 | KDSQALHRFSNTILRYL | -0.406 ± 0.82
103 | KDSRSCLSFL | inactive
104 | KDSYMSCYKPRYVLPRRIIQ | inactive
105 | KEADSVNDRLVNLLMHGTLC | inactive
106 | KESVYPTWHMRWFVYCELVL | inactive
107 | KFGVLRLVFSTLVSTLSRMV | inactive
108 | KFIWYIDDCWWCTTICSSGG | inactive
109 | KFLRVFVKRTLESLRRVTSV | inactive
110 | KFLYGGFCGWMSAVLNVLYP | -0.364 ± 0.82
111 | KFTFMQIKISPFDTCIQGWW | -0.067 ± 0.4
112 | KFTYSLKLCADFGFLSTWKV | inactive
113 | KFVDDRKVCLVLHH | inactive
114 | KFVQSIIGHWNLGHMPCGSM | 0.587 ± 0.17
115 | KGETEPYKDSMLQKLTGQLQ | inactive

Row | Substance | amyloid nucleation score
116 | KGFRAVCWICIYRDEY | -0.533 ± 0.84
117 | KGGDELYFEELDEWSQGSRR | inactive
118 | KGGWEADLYYVVCLVIISIW | inactive
119 | KGLFWEGYGMMLRLRWWMMV | inactive
120 | KGLSIIWMGQFGGAEFRITG | inactive
121 | KGLVLAYILSRSVFERFKGG | inactive
122 | KGSTSAVIGRYGWLRMRC | inactive
123 | KGSVMTCDSYTCFMLNSEVL | 1.47 ± 0.13
124 | KGTMVQTVKSVWLGEHIVLA | inactive
125 | KGWLSSWVA | inactive
126 | KICAK | inactive
127 | KIFYYTWYSLSYTIQLYGLQ | inactive
128 | KIGGVYVLVS | inactive
129 | KINDCYGYYDLYWNWSIVRF | inactive
130 | KIQSMISTITMVFTKLLSHL | -0.546 ± 0.7
131 | KIYIILNGWQVSLIDYYGGK | 2.58 ± 0.056
132 | KIYWGATLNQTSYRVAVCLT | inactive
133 | KKFGSYEWSRI | inactive
134 | KKSKRISLGR | inactive
135 | KLFRIKNGSVEVIWYRNMCQ | 0.973 ± 0.14
136 | KLFVVHSREGEFIFSI | inactive
137 | KLICVRTDWWSCVIISRFSL | inactive
138 | KLRFKLRSLVNNNCGVVTRA | inactive

Row | Substance | amyloid nucleation score
139 | KLRVFV | inactive
140 | KLTIRYLWYPLEQSGYRTCE | 1.06 ± 0.2
141 | KLVATVFTSRCATVWLVQGF | inactive
142 | KLWFGHMPTIF | inactive
143 | KLWPM | inactive
144 | KMACTCAESTVIIS | inactive
145 | KMGPILKCPR | inactive
146 | KMGTRGWLSDIAGNMVYVLC | inactive
147 | KNERVWVSRWETFKLHCSRV | inactive
148 | KNGIITLSSIT | inactive
149 | KNINVLYHICAALKSCAFCT | inactive
150 | KNSTWMSESVNNRFFIQVGA | inactive
151 | KNTSCWAATSADQRRVDFRR | inactive
152 | KPGIRYYFISM | 1.52 ± 0.12
153 | KPMGYYLFDVTTELYDNDWF | inactive
154 | KPRVMFMISARVFVNYRICS | inactive
155 | KPVKTWNYLFWMCL | 2.49 ± 0.072
156 | KQADVFIIMSRVIGNRGCLF | inactive
